The target in the assay is Vif(155–176) (PPLP peptide) (HIV-1). Description: AUC.

One may read the stoichiometry N as the number of molecules, sites or subunits per partner or assembly.

Turning to Vif(155–176) (PPLP peptide), the stoichiometry N came to 2.
